Data published in patent US20150005237A1 (UNIVERSIT T INNSBRUCK, published 2015).

B1: Gαi2 fused to Venus YFP PCA fragment F[1] (other, UniProt P08752 1-355, looked up)
chain: MGCTVSAEDKAAAERSKMIDKNLREDGEKAAREVKLLLLGAGESGKSTIVKQMKIIHEDGYSEEECRQYRAVVYSNTIQSIMAIVKAMGNLQIDFADPQRADDARQLFALSCAAEEQGMLPEDLSGVIRRLWADHGVQACFGRSREYQLNDSAAYYLNDLERIAQSDYIPTQQDVLRTRVKTTGIVETHFTFKDLHFKMFDVGGQRSERKKWIHCFEGVTAIIFCVALSAYDLVLAEDEEMNRMHESMKLFDSICNNKWFTDTSIILFLNKKDLFEEKITQSSLTICFPEYTGANKYDEAASYIQSKFEDLNKRKDTKEIYTHFTCATDTKNVQFVFDAVTDVIIKNNLKDCGLF
notes: Prey fused to F[1]; also called Gαi isoform 2 prey; not shown: Venus variant of yellow fluorescent protein (YFP), N-terminal fragment F[1], amino acids 1-158
B2: Gαi3 fused to Venus YFP PCA fragment F[1] (other, UniProt Q9DC51 1-354, looked up)
chain: MGCTLSAEDKAAVERSKMIDRNLREDGEKAAKEVKLLLLGAGESGKSTIVKQMKIIHEDGYSEDECKQYKVVVYSNTIQSIIAIIRAMGRLKIDFGESARADDARQLFVLAGSAEEGVMTSELAGVIKRLWRDGGVQACFSRSREYQLNDSASYYLNDLDRISQTNYIPTQQDVLRTRVKTTGIVETHFTFKELYFKMFDVGGQRSERKKWIHCFEGVTAIIFCVALSDYDLVLAEDEEMNRMHESMKLFDSICNNKWFTDTSIILFLNKKDLFEEKIKRSPLTICYPEYTGSNTYEEAAAYIQCQFEDLNRRKDTKEVYTHFTCATDTKNVQFVFDAVTDVIIKNNLKECGLY
notes: Prey fused to F[1]; also called Gαi isoform 3 prey; not shown: Venus variant of yellow fluorescent protein (YFP), N-terminal fragment F[1], amino acids 1-158
B3: Phosphoinositide-dependent kinase 1 (PDK1) fused to Venus YFP PCA fragment F[1] (enzyme, UniProt Q9Z2A0 1-559, looked up)
chain: MARTTSQLYDAVPIQSSVVLCSCPSPSMVRSQTEPGSSPGIPSGVSRQGSTMDGTTAEARPSTNPLQQHPAQLPPQPRKKRPEDFKFGKILGEGSFSTVVLARELATSREYAIKILEKRHIIKENKVPYVTRERDVMSRLDHPFFVKLYFTFQDDEKLYFGLSYAKNGELLKYIRKIGSFDETCTRFYTAEIVSALEYLHGKGIIHRDLKPENILLNEDMHIQITDFGTAKVLSPESKQARANSFVGTAQYVSPELLTEKSACKSSDLWALGCIIYQLVAGLPPFRAGNEYLIFQKIIKLEYHFPEKFFPKARDLVEKLLVLDATKRLGCEEMEGYGPLKAHPFFETITWENLHQQTPPKLTAYLPAMSEDDEDCYGNYDNLLSQFGFMQVSSSSSSHSLSTVETSLPQRSGSNIEQYIHDLDTNSFELDLQFSEDEKRLLLEKQAGGNPWHQFVENNLILKMGPVDKRKGLFARRRQLLLTEGPHLYYVDPVNKVLKGEIPWSQELRPEAKNFKTFFVHTPNRTYYLMDPSGNAHKWCRKIQEVWRQQYQSNPDAAVQ
notes: Prey fused to F[1]; not shown: Venus variant of yellow fluorescent protein (YFP), N-terminal fragment F[1], amino acids 1-158

What was measured:
[1] = target: T1, PKA regulatory subunit RIIβ (rat, type IIβ) fused to Venus YFP PCA fragment F[2] (rat, UniProt P12369 1-416); assay: Venus YFP protein-fragment complementation assay in COS7 cells
T1 construct: Expressed in COS7 or HEK293 cells from pcDNA3.1; also called RIIβ-F[2]; RegIIβ; not shown: Venus variant of yellow fluorescent protein (YFP), C-terminal fragment F[2], amino acids 159-239

[2] = target: T2, PKA catalytic subunit (mouse, type α, PKAc) fused to Venus YFP PCA fragment F[2] (mouse, UniProt P05132 1-351); assay: as above
[3] = target: T2, PKA catalytic subunit (mouse, type α, …); assay: Venus YFP protein-fragment complementation assay in cells

T1 sequence (P12369 other isoform, or with tags, fused parts or gaps): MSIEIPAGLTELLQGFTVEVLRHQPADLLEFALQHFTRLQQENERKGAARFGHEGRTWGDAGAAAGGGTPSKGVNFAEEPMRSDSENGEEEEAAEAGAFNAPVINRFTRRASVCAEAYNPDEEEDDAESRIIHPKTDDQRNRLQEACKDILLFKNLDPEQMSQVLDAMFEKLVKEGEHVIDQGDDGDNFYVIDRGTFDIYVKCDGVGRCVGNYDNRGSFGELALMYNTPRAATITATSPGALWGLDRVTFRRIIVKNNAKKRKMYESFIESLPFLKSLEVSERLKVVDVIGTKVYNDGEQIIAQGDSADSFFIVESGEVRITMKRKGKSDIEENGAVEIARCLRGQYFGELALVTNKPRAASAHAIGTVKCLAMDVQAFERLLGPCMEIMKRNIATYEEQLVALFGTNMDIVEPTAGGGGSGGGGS

Binder | binding result [1] | binding result [2] | binding result [3]
B1 | binds | no binding | –
B2 | binds | no binding | –
B3 | – | – | binds
